{
  "source": "paper doi:10.1101/2021.08.28.458007v1",
  "data": [
    {"system": "O=C1O[C@H]([C@@H](O)CO)C(=O)C1=O", "assay": "purified protein", "settings": "co-substrate GSH, 50 mM phosphate pH 6.8, 0.2 mM EDTA", "units": {"kcat": "s⁻¹"}, "values": [
      {"substance": "HsCLIC4 (Homo sapiens)", "Km": "495.1 (±316.6) μM", "kcat": 0.00222},
      {"substance": "HsCLIC3 (Homo sapiens)", "Km": "310.2 (±140.2) μM", "kcat": 0.00197},
      {"substance": "HsCLIC1 (Homo sapiens)", "Km": "2753 (±939.5) μM", "kcat": 0.00542},
      {"substance": "HsCLIC1 (Homo sapiens; K13A)", "Km": "4121 (±858.6) μM", "kcat": 0.0002}
    ]}
  ]
}
